Where only a bound is given, the exact number is not on record here.

This passage reports activity of insect peripheral nerve preparations results from patent US5461032.

The assay concerns the target voltage-sensitive sodium channel of nerve membrane (house fly, Musca domestica, third instar larvae) (Musca domestica).

“toxin 4 of the scorpion Leiurus quinquestriatus (peptide)”: the activity of insect peripheral nerve preparations was above 500 nM.
